Assay results published in the supplement of paper PMC10567573.

B1: FAM50A (parent)
chain: KKREKQREQMEQMKQRIAEENIMK

Variants of: B1
Experiment: protein stability index of a GFP-peptide fusion (GPS, HEK-293T) (PSI 1-6); higher = more stable
Conditions: c terminus: a fixed tail appended
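Also: lentivirally expressed fusions sorted by FACS into six bins by GFP to DsRed ratio, PSI derived from sequencing read proportions per bin multiplied by bin number.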

Variant | protein stability index
A18S | 4.78
A18D | 5.35
A18F | 4.84
Q9L | 4.92
Q9T | 4.72
Q9F | 4.16
Q9R | 4.56
Q9S | 4.74
Q9D | 4.96
Q9Y | 4.51
Q9N | 4.8
Q9K | 4.93
Q9W | 4.13
Q9P | 4.89
Q9I | 4.01
Q9G | 4.75
Q9A | 4.86
Q9M | 4.4
Q9E | 5.18
Q9C | 4.73
Q9H | 4.68
Q9V | 4.67
K5C | 5.05
K5V | 4.96

Variant | protein stability index
K5L | 4.68
K5N | 5.25
K5H | 5.12
K5P | 5.34
K5E | 5.26
K5G | 4.55
K5M | 4.95
K5T | 5.16
K5D | 4.75
K5Y | 4.11
K5S | 4.92
K5F | 4.8
K5R | 4.62
K5W | 4.46
K5A | 4.38
K5Q | 4.39
K5I | 4.76
E4A | 5.04
E4N | 4.37
E4L | 4.21
E4C | 4.42
E4Q | 4.79
E4F | 4.39
E4P | 4.42

Variant | protein stability index
E4G | 4.71
E4V | 4.49
E4Y | 4.27
E4S | 4.47
E4H | 4.38
E4K | 4.28
E4D | 5.21
E4W | 3.96
E4R | 4.32
E4M | 4.5
E4I | 4.53
E4T | 4.09
E20C | 4.53
E20D | 4.85
E20A | 4.47
E19F | 3.71
E19K | 5.08
E19N | 4.34
E19L | 3.22
E19S | 4.33
E19H | 4.6
E19P | 4.19
E19A | 4.63
E19I | 2.92

Variant | protein stability index
E19M | 4.09
E19V | 3.47
E19D | 4.33
E19T | 4.78
E19W | 3.66
E19Q | 4.72
E19G | 4.78
E19C | 3.9
E19R | 4.98
E19Y | 4.38
Q12N | 5.04
Q12F | 3.71
Q12G | 4.66
Q12T | 4.7
Q12K | 4.57
Q12L | 4.55
Q12V | 5.07
Q12D | 5.02
Q12W | 4.45
Q12E | 5.28
Q12R | 4.39
Q12P | 4.9
Q12H | 4.58
Q12A | 4.44

Variant | protein stability index
Q12C | 5.05
Q12S | 4.84
Q12I | 4.63
Q12M | 4.27
Q12Y | 4.55
R7S | 5.51
R7G | 5.21
R7Y | 4.76
R7W | 4.13
R7K | 4.81
R7M | 4.52
R7E | 5.81
R7T | 4.84
R7P | 4.7
R7D | 5.39
R7N | 4.93
R7C | 4.71
R7F | 4.52
R7L | 4.95
R7H | 5.08
R7I | 4.96
R7V | 4.98
R7A | 4.91
R7Q | 5.25

Variant | protein stability index
E11Y | 4.25
E11D | 5.03
E11C | 4.13
E11N | 4.86
E11M | 4.17
E11F | 4.15
E11S | 4.41
E11V | 4.66
E11P | 4.74
E11K | 4.5
E11Q | 4.68
E11W | 3.9
E11L | 3.96
E11G | 4.48
E11H | 4.62
E11R | 4.49
E11I | 4.4
E11T | 4.57
E8F | 4.29
E8T | 4.31
E8N | 4.44
E8M | 4.58
E8C | 4.15
E8Y | 4.23

Variant | protein stability index
E8K | 4.48
E8A | 4.96
E8G | 4.85
E8Q | 4.82
E8H | 3.74
E8S | 4.41
E8D | 4.63
E8P | 4.89
E8R | 4.71
E8I | 4.51
E8V | 4.37
E8W | 3.68
E8L | 4.57
K2V | 4.52
K2Y | 4.22
K2W | 4.58
K2P | 5.22
K2M | 4.64
K2Q | 4.75
K2S | 5.01
K2T | 5.07
K2R | 5.03
K2N | 4.94
